Residue numbers refer to the chain shown, from its start.
B1: MYT11610 (antibody, V domains shown)
VH: QVQLQQSGSELKKPGASVKVSCKASGYTFTNYGMNWVKQAPGQGLKWMGWINTYTGEPTYTDDFKGRFAFSLDTSVSTAYLQISSLKADDTAVYFCARGGFGSSYWYFDVWGQGSLVTVSS
VL: DIQLTQSPSSLSASVGDRVSITCKAHQDVSIAVAWYQQKPGKAPKLLIYSASYRYTGVPDRFSGSGSGTDFTLTISSLQPEDFAVYYCQQHYITPLTFGAGTKVEIK
notes: Sacituzumab variant, His at LCV position 26 (L1 03)
B2: MYT11612 (antibody, V domains shown)
VH: B1 VH
VL: B1 VL with H26S, D28H
notes: Sacituzumab variant, His at LCV position 28 (L1 05)
B3: MYT11621 (antibody, V domains shown)
VH: B1 VH
VL: B1 VL with H26S, S52H
notes: Sacituzumab variant, His at LCV position 52 (L2 03)
B4: MYT11611 (antibody, V domains shown)
VH: B1 VH
VL: B1 VL with H26S, Q27H
notes: Sacituzumab variant, His at LCV position 27 (L1 04)
B5: MYT11615 (antibody, V domains shown)
VH: B1 VH
VL: B1 VL with H26S, I31H
notes: Sacituzumab variant, His at LCV position 31 (L1 08)
B6: MYT11613 (antibody, V domains shown)
VH: B1 VH
VL: B1 VL with H26S, V29H
notes: Sacituzumab variant, His at LCV position 29 (L1 06)
B7: MYT11620 (antibody, V domains shown)
VH: B1 VH
VL: B1 VL with H26S, A51H
notes: Sacituzumab variant, His at LCV position 51 (L2 02)
B8: MYT11617 (antibody, V domains shown)
VH: B1 VH
VL: B1 VL with H26S, V33H
notes: Sacituzumab variant, His at LCV position 33 (L1 10)
B9: MYT12410 (hu7E6SVG variant, HCV substitutions at 33, 56) (antibody, V domains shown)
VH: QVQLQESGPGLVKPSETLSLTCTVSGGSISSYHVHWIRQPPGKGLEWIGVIWTSGHTDYNSALMGRVTISVDTSKNQFSLKLSSVTAADTAVYYCARDGDYDRYTMDYWGQGTLVTVSS
VL: DIVMTQSPDSLAVSLGERATINCRASKSVSTSGYSYMHWYQQKPGQPPKLLIYLASNLESGVPDRFSGSGSGTDFTLTISSLQAEDVAVYYCQHSRELPYTFGQGTKLEIK
B10: MYT12423 (hu7E6SVG variant, HCV substitutions at 56, 102) (antibody, V domains shown)
VH: B9 VH with H33G, D102H
VL: B9 VL
B11: MYT12447 (hu7E6SVG variant, LCV substitutions at 60, 101) (antibody, V domains shown)
VH: B9 VH with H33G, H56V
VL: B9 VL with S60H, T101H
notes: Full IgG in Expi293 supernatant
B12: MYT12430 (hu7E6SVG variant, HCV substitutions at 33, 51, 103) (antibody, V domains shown)
VH: B9 VH with I51H, H56V, R103H
VL: B9 VL
B13: MYT12444 (hu7E6SVG variant, LCV substitutions at 60, 93) (antibody, V domains shown)
VH: B9 VH with H33G, H56V
VL: B9 VL with S60H, Q93H
notes: as for B11
B14: MYT12453 (hu7E6SVG variant, LCV substitutions at 97, 101) (antibody, V domains shown)
VH: B9 VH with H33G, H56V
VL: B9 VL with E97H, T101H
notes: as for B11
B15: MYT12437 (hu7E6SVG variant, HCV substitutions at 51, 103, 106) (antibody, V domains shown)
VH: B9 VH with H33G, I51H, H56V, R103H, M106H
VL: B9 VL
B16: MYT12438 (hu7E6SVG variant, HCV substitutions at 56, 103, 106) (antibody, V domains shown)
VH: B9 VH with H33G, R103H, M106H
VL: B9 VL
B17: MYT12446 (hu7E6SVG variant, LCV substitutions at 60, 97) (antibody, V domains shown)
VH: B9 VH with H33G, H56V
VL: B9 VL with S60H, E97H
notes: as for B11
B18: MYT12445 (hu7E6SVG variant, LCV substitutions at 60, 94 (Ala at 94)) (antibody, V domains shown)
VH: B9 VH with H33G, H56V
VL: B9 VL with S60H, H94A
notes: as for B11
B19: MYT12426 (hu7E6SVG variant, HCV substitutions at 102, 103) (antibody, V domains shown)
VH: B9 VH with H33G, H56V, D102H, R103H
VL: B9 VL
B20: MYT12441 (hu7E6SVG variant, LCV substitutions at 59, 94 (Ala at 94)) (antibody, V domains shown)
VH: B9 VH with H33G, H56V
VL: B9 VL with E59H, H94A
notes: as for B11
B21: MYT12415 (hu7E6SVG variant, HCV substitutions at 34, 56) (antibody, V domains shown)
VH: B9 VH with H33G, V34H
VL: B9 VL
B22: MYT12419 (hu7E6SVG variant, HCV substitutions at 51, 56) (antibody, V domains shown)
VH: B9 VH with H33G, I51H
VL: B9 VL
B23: MYT12436 (hu7E6SVG variant, HCV substitutions at 51, 56, 106) (antibody, V domains shown)
VH: B9 VH with H33G, I51H, M106H
VL: B9 VL
B24: MYT12411 (hu7E6SVG variant, HCV substitutions at 33, 102) (antibody, V domains shown)
VH: B9 VH with H56V, D102H
VL: B9 VL
B25: MYT12451 (hu7E6SVG variant, LCV substitutions at 94, 97 (Ala at 94)) (antibody, V domains shown)
VH: B9 VH with H33G, H56V
VL: B9 VL with H94A, E97H
notes: as for B11
B26: MYT12418 (hu7E6SVG variant, HCV substitutions at 34, 106) (antibody, V domains shown)
VH: B9 VH with H33G, V34H, H56V, M106H
VL: B9 VL
B27: MYT12435 (hu7E6SVG variant, HCV substitutions at 51, 56, 103) (antibody, V domains shown)
VH: B9 VH with H33G, I51H, R103H
VL: B9 VL
B28: MYT12450 (hu7E6SVG variant, LCV substitutions at 93, 101) (antibody, V domains shown)
VH: B9 VH with H33G, H56V
VL: B9 VL with Q93H, T101H
notes: as for B11
B29: MYT12422 (hu7E6SVG variant, HCV substitutions at 51, 106) (antibody, V domains shown)
VH: B9 VH with H33G, I51H, H56V, M106H
VL: B9 VL
B30: MYT12442 (hu7E6SVG variant, LCV substitutions at 59, 97) (antibody, V domains shown)
VH: B9 VH with H33G, H56V
VL: B9 VL with E59H, E97H
notes: as for B11
B31: MYT12443 (hu7E6SVG variant, LCV substitutions at 59, 101) (antibody, V domains shown)
VH: B9 VH with H33G, H56V
VL: B9 VL with E59H, T101H
notes: as for B11
B32: MYT12432 (hu7E6SVG variant, HCV substitutions at 33, 56, 103) (antibody, V domains shown)
VH: B9 VH with R103H
VL: B9 VL
B33: MYT12428 (hu7E6SVG variant, HCV substitutions at 103, 106) (antibody, V domains shown)
VH: B9 VH with H33G, H56V, R103H, M106H
VL: B9 VL
B34: MYT12414 (hu7E6SVG variant, HCV substitutions at 34, 51) (antibody, V domains shown)
VH: B9 VH with H33G, V34H, I51H, H56V
VL: B9 VL
B35: MYT12448 (hu7E6SVG variant, LCV substitutions at 93, 94 (Ala at 94)) (antibody, V domains shown)
VH: B9 VH with H33G, H56V
VL: B9 VL with Q93H, H94A
notes: as for B11
B36: MYT12427 (hu7E6SVG variant, HCV substitutions at 102, 106) (antibody, V domains shown)
VH: B9 VH with H33G, H56V, D102H, M106H
VL: B9 VL
B37: MYT12449 (hu7E6SVG variant, LCV substitutions at 93, 97) (antibody, V domains shown)
VH: B9 VH with H33G, H56V
VL: B9 VL with Q93H, E97H
notes: as for B11

These binders were tested against T1, Human TROP2 Protein, His Tag (Acro Biosystems) (human, UniProt P09758 27-274) (assay: BLI (Octet)).
T1 construct: Bought protein; not shown: His tag
T1 sequence (looked up): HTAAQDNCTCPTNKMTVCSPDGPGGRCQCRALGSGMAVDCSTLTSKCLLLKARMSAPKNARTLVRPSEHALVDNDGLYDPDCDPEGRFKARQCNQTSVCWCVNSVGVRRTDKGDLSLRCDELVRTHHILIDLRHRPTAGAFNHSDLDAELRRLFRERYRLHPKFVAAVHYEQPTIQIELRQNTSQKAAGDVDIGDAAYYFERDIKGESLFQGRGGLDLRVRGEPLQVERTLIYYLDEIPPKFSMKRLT
Experimental: After allowing for four days of protein expression, cell culture supernatants were collected, quantified by SDS-PAGE analysis (DNS), and the pH dependence of the variant was evaluated using biolayer interferometry (BLI) on an Octet RED 96e instrument. Briefly, cell culture supernatants were diluted based on qualitative expression level of the variant determined by visual examination of SDS-PAGE gels, 5 μL of cell culture supernatant was diluted into 195 μL of 1×PBST, pH 7.4 for high expressors, 25 μL of cell culture supernatant was diluted into 175 μL of 1×PBST, pH 7.4 for medium expressors and 100 μL of cell culture supernatant was diluted into 100 μL of 1×PBST, pH 7.4 for low expressors for loading onto the sensor tips. The resulting diluted supernatants were then captured on an anti-human Fc sensor (Forte Bio). A baseline was established using 1×PBST (50 mM Potassium Phosphate Buffer+150 mM NaCl+0.05% Tween 20) pH 7.4, and the sensor was associated with 50 nM of TROP2 (Human TROP2 Protein, His Tag, Acro Biosystems) in 1×PBST pH 7.4 for 120 sec to generate an association curve. In the dissociation phase, the antibody-antigen complex on the sensor was exposed to 1×PBST pH 7.4 or pH 5.4, for 300 sec. Association and dissociation phase curves were examined for the starting ABPC antibody (with no substitutions) and each corresponding antibody variant at pH 5.4 and pH 7.4 to inform on two criteria: a) enhanced dissociation (i.e., higher koff values) at pH 5.4 due to histidine or alanine substitution compared to the starting ABPC, (with no substitutions), and b) reduced dissociation at pH 7.4 (i.e., lower koff values) compared to pH 5.4 in the antibody variant itself and with the starting ABPC (with no substitutions). […] It was also noted that while some mutations obliterated TROP2 binding, others were tolerated with little or n change in TROP2 binding kinetics.

**Q.** Does B1 bind?
**A.** binds

**Q.** Does B2 bind?
**A.** binds

**Q.** Does B3 bind?
**A.** binds

**Q.** Does B4 bind?
**A.** binds

**Q.** Does B5 bind?
**A.** binds

**Q.** Does B6 bind?
**A.** binds

**Q.** Does B7 bind?
**A.** binds

**Q.** Does B8 bind?
**A.** binds

What follows are binders tested against T2, Human TROP2 Protein, His Tag (Acro Biosystems) (human, UniProt P09758 27-274) (assay: BLI (Octet)).
T2 construct: Bought protein; also called TACSTD2; not shown: His tag
T2 sequence: T1 sequence (looked up)

**Q.** Does B9 bind?
**A.** binds

**Q.** Does B10 bind?
**A.** binds

**Q.** Does B11 bind?
**A.** binds

**Q.** Does B12 bind?
**A.** binds

**Q.** Does B13 bind?
**A.** binds

**Q.** Does B14 bind?
**A.** binds

**Q.** Does B15 bind?
**A.** binds

**Q.** Does B16 bind?
**A.** binds

**Q.** Does B17 bind?
**A.** binds

**Q.** Does B18 bind?
**A.** binds

**Q.** Does B19 bind?
**A.** binds

**Q.** Does B20 bind?
**A.** binds

**Q.** Does B21 bind?
**A.** binds

**Q.** Does B22 bind?
**A.** binds

**Q.** Does B23 bind?
**A.** binds

**Q.** Does B24 bind?
**A.** binds

**Q.** Does B25 bind?
**A.** binds

**Q.** Does B26 bind?
**A.** binds

**Q.** Does B27 bind?
**A.** binds

**Q.** Does B28 bind?
**A.** binds

**Q.** Does B29 bind?
**A.** binds

**Q.** Does B30 bind?
**A.** binds

**Q.** Does B31 bind?
**A.** binds

**Q.** Does B32 bind?
**A.** binds

**Q.** Does B33 bind?
**A.** binds

**Q.** Does B34 bind?
**A.** binds

**Q.** Does B35 bind?
**A.** binds

**Q.** Does B36 bind?
**A.** binds

**Q.** Does B37 bind?
**A.** binds
